For this test, the target named is human IL-12 receptor on HEK-Blue IL-12 reporter cells (human) (UniProt P42701).

Several values for one entry are separate records, joined by “and”; a condition that tells them apart may be missing. Equal values may be shown once.

Sequence of human IL-12 receptor on HEK-Blue IL-12 reporter cells (human) (Q99665 24-862, chain 2 of 2, other chains not shown): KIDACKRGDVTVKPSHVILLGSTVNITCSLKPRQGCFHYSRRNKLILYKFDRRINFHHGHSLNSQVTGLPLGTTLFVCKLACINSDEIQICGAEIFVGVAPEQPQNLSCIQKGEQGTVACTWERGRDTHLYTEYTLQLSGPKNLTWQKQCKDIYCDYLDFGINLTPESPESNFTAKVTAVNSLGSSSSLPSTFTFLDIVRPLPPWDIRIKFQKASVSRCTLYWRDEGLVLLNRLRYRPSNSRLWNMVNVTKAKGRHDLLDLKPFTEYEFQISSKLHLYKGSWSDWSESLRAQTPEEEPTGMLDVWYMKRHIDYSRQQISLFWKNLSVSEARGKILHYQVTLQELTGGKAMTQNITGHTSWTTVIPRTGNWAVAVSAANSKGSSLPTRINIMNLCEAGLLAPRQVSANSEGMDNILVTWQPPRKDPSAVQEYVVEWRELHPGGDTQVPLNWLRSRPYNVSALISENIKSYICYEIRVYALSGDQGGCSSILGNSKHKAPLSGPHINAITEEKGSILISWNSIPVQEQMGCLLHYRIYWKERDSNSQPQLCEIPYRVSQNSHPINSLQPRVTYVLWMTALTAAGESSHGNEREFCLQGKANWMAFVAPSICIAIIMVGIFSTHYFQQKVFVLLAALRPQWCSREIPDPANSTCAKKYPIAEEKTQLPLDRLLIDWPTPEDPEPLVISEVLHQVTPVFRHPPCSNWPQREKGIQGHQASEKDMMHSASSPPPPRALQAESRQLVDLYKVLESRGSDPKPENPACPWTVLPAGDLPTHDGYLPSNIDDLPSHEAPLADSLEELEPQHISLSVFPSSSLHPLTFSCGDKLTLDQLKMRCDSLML

IL12 (ligand): the EC50 (read off the curve) (as a rule, the midpoint of the concentration-response curve) is 90 pM and 50 pM.

The record behind these values is patent US20230265146A1.
